T1: BCDX2 complex (human, UniProt O15315;O43502;O75771;O43543 1-384;1-376;1-328;1-280)
T1 sequence 1: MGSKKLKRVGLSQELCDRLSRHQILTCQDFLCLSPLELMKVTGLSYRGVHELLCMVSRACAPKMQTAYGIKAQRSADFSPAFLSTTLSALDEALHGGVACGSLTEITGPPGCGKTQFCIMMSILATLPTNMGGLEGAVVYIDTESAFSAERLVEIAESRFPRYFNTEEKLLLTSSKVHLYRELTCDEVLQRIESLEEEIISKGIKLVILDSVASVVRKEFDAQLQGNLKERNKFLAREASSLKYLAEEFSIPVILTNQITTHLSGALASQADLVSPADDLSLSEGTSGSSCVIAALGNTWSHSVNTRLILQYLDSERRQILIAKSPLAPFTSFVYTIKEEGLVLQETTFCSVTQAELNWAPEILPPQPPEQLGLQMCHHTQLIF
T1 sequence 2: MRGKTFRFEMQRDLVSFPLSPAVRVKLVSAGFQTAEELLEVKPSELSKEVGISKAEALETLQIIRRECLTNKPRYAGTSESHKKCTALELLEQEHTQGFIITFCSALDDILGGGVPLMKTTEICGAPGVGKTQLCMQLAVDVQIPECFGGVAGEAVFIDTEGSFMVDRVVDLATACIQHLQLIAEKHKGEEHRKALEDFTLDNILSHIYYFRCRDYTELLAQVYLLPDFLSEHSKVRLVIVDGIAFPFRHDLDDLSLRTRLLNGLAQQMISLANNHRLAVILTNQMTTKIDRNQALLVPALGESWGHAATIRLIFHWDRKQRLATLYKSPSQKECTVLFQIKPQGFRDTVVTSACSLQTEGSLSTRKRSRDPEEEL
T1 sequence 3: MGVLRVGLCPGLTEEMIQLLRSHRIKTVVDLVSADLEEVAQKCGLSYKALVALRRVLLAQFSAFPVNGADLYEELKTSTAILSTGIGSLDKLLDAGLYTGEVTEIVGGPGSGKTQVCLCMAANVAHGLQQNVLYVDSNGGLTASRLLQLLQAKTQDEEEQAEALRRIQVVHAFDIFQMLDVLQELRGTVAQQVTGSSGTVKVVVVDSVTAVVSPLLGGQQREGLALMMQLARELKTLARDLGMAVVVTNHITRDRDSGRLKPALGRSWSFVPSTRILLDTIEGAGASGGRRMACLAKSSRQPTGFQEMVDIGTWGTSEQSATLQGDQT
T1 sequence 4: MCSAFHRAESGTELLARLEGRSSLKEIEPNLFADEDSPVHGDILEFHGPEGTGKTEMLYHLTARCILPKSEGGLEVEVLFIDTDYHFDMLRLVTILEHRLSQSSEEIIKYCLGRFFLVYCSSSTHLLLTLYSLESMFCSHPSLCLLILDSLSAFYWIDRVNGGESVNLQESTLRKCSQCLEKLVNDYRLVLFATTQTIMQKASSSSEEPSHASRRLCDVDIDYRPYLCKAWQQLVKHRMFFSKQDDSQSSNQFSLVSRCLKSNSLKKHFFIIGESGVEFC


Experiments:
BCDX2 complex [1] = molecular target: T1, BCDX2 complex; assay: EMSA; stronger than ssDNA; EMSA: 20 mM Tris-HCl pH 7.5, 2 mM MgCl2, 2 mM ATP, 37 C, 20 nM DNA, glutaraldehyde fixation; stopped-flow: 25 mM Tris-HCl pH 7.5, 5 mM MgCl2, 50 mM KCl, 2 mM ATP, 0.5 mM EDTA, 10% glycerol, 37 C; BLI: 50 mM Tris-HCl pH 7.5, 2 mM ATP, 50 mM KCl, 5 mM MgCl2, 0.05% Tween 20, room temperature; settings: protein: recombinant; tags: Strep-tag and His-tag (XRCC2 N-terminal His); copies: 1;1;1;1; label: 5' FITC on strand 1; flap 1:2 1:3
BCDX2 complex [2] = molecular target: T1, BCDX2 complex; assay: EMSA; significant binding; EMSA: 20 mM Tris-HCl pH 7.5, 2 mM MgCl2, 2 mM ATP, 37 C, 20 nM DNA, glutaraldehyde fixation; stopped-flow: 25 mM Tris-HCl pH 7.5, 5 mM MgCl2, 50 mM KCl, 2 mM ATP, 0.5 mM EDTA, 10% glycerol, 37 C; BLI: 50 mM Tris-HCl pH 7.5, 2 mM ATP, 50 mM KCl, 5 mM MgCl2, 0.05% Tween 20, room temperature; settings: protein: recombinant; tags: Strep-tag and His-tag (XRCC2 N-terminal His); copies: 1;1;1;1; label: 5' FITC
BCDX2 complex [3] = molecular target: T1, BCDX2 complex; assay: EMSA; stronger than miniBRCA2; EMSA: 20 mM Tris-HCl pH 7.5, 2 mM MgCl2, 2 mM ATP, 37 C, 20 nM DNA, glutaraldehyde fixation; stopped-flow: 25 mM Tris-HCl pH 7.5, 5 mM MgCl2, 50 mM KCl, 2 mM ATP, 0.5 mM EDTA, 10% glycerol, 37 C; BLI: 50 mM Tris-HCl pH 7.5, 2 mM ATP, 50 mM KCl, 5 mM MgCl2, 0.05% Tween 20, room temperature; settings: protein: recombinant; tags: Strep-tag and His-tag (XRCC2 N-terminal His); copies: 1;1;1;1; label: 5' FITC

| Binder | binding result (BCDX2 complex [3]) | also measured |
| --- | --- | --- |
| 3' flap (mixed) DNA 1: AGCTACCATGCCTGCACGAATTAAGCAATTCGTAATCATGGTCATAGCT DNA 2: AGCTATGACCATGATTACGAATTGCTTGGAATCCTGACGAACTGTAG DNA 3: AATTCGTGCAGGCATGGTAGCT | – | binding result (BCDX2 complex [1]): binds |
| AGAAGAGAGCAGAGG (ssDNA) [ssDNA 15mer] | – | binding result (BCDX2 complex [2]): binds |
| GTACAAAGCTCTGGCATGATACTATGCGGC (ssDNA) [ssDNA 30mer] | binds | – |
| CTAAGTTCGTCAGGATTCCAGCATTCTAACAGTCATAGCG (ssDNA) [ssDNA 40mer] | binds | – |
